Protein production data for 17 sequences are collected here from a protein production outcome set (Wang et al. 2014).
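Also: failed if final PepcDB status was selected cloned or expressed and not failed if soluble or beyond.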

A short description of the series: label from the status in PepcDB records.
Regarding “MGHHHHHHSHMTCGAWEMKERLGTGGFGNVIRWHNQETGEQIAIKQCRQELSPRNRERWCLEIQIMRRLTHPNVVAARDVPEGMQNLAPNDLPLLAMEYCQGGDLRKYLNQFENCCGLREGAILTLLSDIASALRYLHENRIIHRD”, the protein production result was “failed”.

With “MAKYFDIDDILIEEEFVPVLFHKTANGVTIDPSAETNCVSLLIPSAKAEQGSKVELPFWLAHELHLRQAVTINLPPCFDQKTRLEVQADAAYVDLRSRCPYFYEFGCKIEPLVTDRTLGILLSTAFKIRYKEALTKVYTAAHITASKYLSFLTKEETNLYEAAHLSMTAFKKWRTGGPRFQRASILGRKRKDSN”, the protein production entry is recorded as “failed”. Next, “MTLATRSMQPHAVSPGQARSWPLPAAGWLLLAVGVWLAFLSWMRPLALPDEGRYAGVAWDMLRNGSFAVPLIDGMPYFHKPPLYYWLAELSFRLFGVNEWAVRLPSALAAWASAVALYLFVRRHRDAASATLCVLVLATLPLFFGGAQYANMDMLVAGMITLCVLAGADTALRVRGGQAWRAMALATGVCAALAMLAKGLIGLVLPGAILLAWLAWRRDWRGLRALLWPPAILAFAVVAVPWFWLMQVRYPGFFQYFFVHQHFERFAQTGFNNVQPFWFYLPVIAGLALPWSLWAGGLLRKQFWAADADPDGLRRLALVWLAVIVAFFSMPQSKLVGYIMPVLPPLAFLLAEVVMGALRDPAVARATRRMARVSALVAVAICVTAVFVASFNARGSSRELALSLRGELRPDDTLVALHTYPFDLQLYAHAARPMWVVDDWSNPEIPKRDNWRRELYDAVQFEPALGERLLVSADTFQQRLCQAPEGSRYWVWGTAADEEAYAPLRGQAARFADARRSLWLVLVDEAFKGRVCDGTPTGG”: “failed”; “MNVSHISAVSYYFARYIQEVLEVPVGIVVSTWGGSKIEAWMSRESIKPFSSIDLSILDNDAEVKNPTATPCVLYNGKIAPLTNFAVRGFLWYQGESNRDNADLYQSLMPAFVADLRAKWGRGELPFYFVQIAPFDYEGADGTSAARLREVQLQNMKDIPNSGMVTTMDVGHPVFIHPVDKETVGNRLAYWALAQTYGMKGFGYAPPVYKSMEIQENKIYINFYNAQRGLSPMWTSLKGFEIAGEDKVFYPAFAEIETTTARLAVSSDKVSHPVAVRYAYKNYVEASIFSIHGIPAAPFRTDNWLEHHHHHH”: “failed”; “MKGKILDYSVQTNTAIIRTEDQKHYSFLGSAWREWIVPMPGMHVYFELDAQGEVTEVFIDVPEEDTPIAKPILTPVKAFITAPLMVDMQDKQHHTMLEKEAHYCMIDWVIKCFKNALDFKGRARRQEFWSFQFFYTVLGVGMLAFGHFLDLGHTLFIVSSIFMLLPALAVSVRRLHDINRSGWLLLINLVPIVGVLIVIFFFMTEEGDSRANAFGPPSK”: “failed”. Next, “EKIGDRTYRVVSRLSLEDLKDHIEEELDLEIEFGDEIEDQVDTVGGLIAFELGRVPLPGATVETCGLKLTAEGAKNRRGRLRMHSAVVEVGE”: “not failed”; “MKNVKFIKKSESVIGLWLPILVILILFAFLVAESVIMKDIILSNSVVALATAIMASAALVTILVSNRQVQLMARQQRLKAIEDRLEKFYIPLIKAFSSYVYTAQTEDEIETIITCRRYLAGNNLLRVLPMHFKFKADKIAGSANWTFYAKEDFEQWKEALDVLWEEFLEVLKEYYTLSGTEISLPEKPDWLIGYK”: “failed”. For the sequence “MPAKVLINGYGSIGKRVADAVSMQDDMEVIGVTKTKPDFEARLAVEKGYKLFVAIPDNERVKLFEDAGIPVEGTILDIIEDADIVVDGAPKKIGKQNLENIYKPHKVKAILQGGEKAKDVEDNFNALWSYNRCYGKDYVRVVSCNTTGLCRILYAINSIADIKKARIVLVRRAADPNDDKTGPVNAITPNPVTVPSHHGPDVVSVVPEFEGKILTSAVIVPTTLMHMHTLMVEVDGDVSRDDILEAIKKTPRIITVRAEDGFSSTAKIIEYGRDLGRLRYDINELVVWEESINVLENEIFLMQAVHQESIVIPENIDCIRAMLQMEEDNFKSIEKTNKAMGIQ”, the protein production entry is “not failed”. Next, “NTMRSFILRARSAPTDSQRLLDEIGGKCHTEILAHCMMNSLFTAQSHREDVVIHLVLESTRDYSRTITVEANEISDVGGFHEAALIALLVKALDASVGMGKEQTRVVQPGLTVRTISFEALLGELAEHHSLYMMDKKGDSIRDIKIGPNPCFILTDHIPMPKKSGNSMKRLGVEKISLGPKMLFASQCVTLIHNEIDHQEA”: “failed”. Then “RTEAGDAYYSKFANNTPLPALMVSRKKFGSSYVYDKSYKTWDVPIAEQMEQKAKINIFAVAEYTDTQKIKVTVKGKILEGNTLPKSMVQVYLLEDKLIAPQVDGNTTVENYEHNHVLRGAVNGIWGEEFVNLKDYLYTYAVEPLSGMSFVAENYSIVAFVYDVQTFEVYDVVHVKINPQSDGK”, with “not failed”; and “MSALRVTSPSVEYVQRPLGLDAAHPRLSWPMASAAPGRRQSAYQVRVASSAAGLSHPDVWDSGKVVSDDSVLVPYAGPPLKPRTRYFWSVRVWDADGGASEWSAPSWWETGLMGASQWSAKWISAPAPLTEAPSLEGSSWIWFPEGEPANSAPAATRWFRRTVDLPDDITGATLAISADNVYAVSVDGAEVARTDLEADNEGWRRPAVIDVLDHVHSGNNTLAVSASNASVGPAGWICVLVLTTASGEKKIFSDASWKSTDHEPADGWREPDFDDSGWPAAKVAAAWGAGPWGRVAPVASAANQLRHEFRLPHKKVSRARLYATALGLYEAHLNGRRVGRDQLAPGWTDYRKRVQYQTYDVTSSVRPGANALAAYVAPGWYAGNVGMFGPHQYGERPALLAQLEVEYADGTSERITSGPDWRAASGPIVSADLLSGETYDARKETAGWTSPGFDDRAWLAVRGADNDVPEQIVAQVDGPVRIAKELPARKVTEPKPGVFVLDLGQNMVGSVRLRVSGDAGTTVRLRHAEVLNPDGTIYTANLRSAAATDTYTLKGQGEETYEPRFTFHGFRYVEVTGFPGKPSTTSVTGRVMHTSAPFTFEFETNVPMLNKLHSNITWGQRGNFLSVPTDTPARDERLGWTGDINVFAPTAAYTMESARFLTKWLVDLRDAQTSDGAFTDVAPAVGNLGNGVAGWGDAGVTVPWALYQAYGDRQVLADALPSVHAWLRYLEKHSDGLLRPADGYGDWLNVSDETPKDVIATAYFAHSADLAARMATELGKDAAPYTDLFTRIRKAFQTAYVASDGKVKGDTQSAYVLTLSMNLVPDALRKAAADRLVALIEAKDWHLSTGFLGTPRLLPVLTDTGHTDVAYRLLHQRTFPSWGYPIDKGSTTMWERWDSIQPDGGFQTPEMNSFNHYAYGSVGEWMYANIAGIAPGRAGYRQVVIRPRPGGEVTSARATFASLHGPVSTRWQQRSGGFVLTCSVPPNTTAEVWIPADHPDRVQHTHGTFVRAEDGCAVFEVGSGSHRFTV”, with “failed”. Next, “MIGKPRGRRGVNLQILPSAMTVLSICAGLTAIKFALEHQPKAAMALIAAAAILDGLDGRVARILDAQSRMGAEIDSLADAVNFGVTPALVLYVSMLSKWPVGWVVVLLYAVCVVLRLARYNALQDDGTQPAYAHEFFVGMPAPAGAVSMIGLLALKMQFGEGWWTSGWFLSFWVTGTSILLVSGIPMKKMHAVSVPPNYAAALLAVLAICAAAAVLAPYLLIWVIIIAYMCHIPFAVRSQRWLAQHPEVWDDKPKQRRAVRRASRRAHPYRPSMARLGLRKPGRRL”: “failed”; “MKRGLRKERNKEDEAGKIVNEGKAHLFYKVIILMVFYISYGIYLYWRFAYTIPRGYGDIALIAGYVLFIAETIGFLESSMFYLTLWDTNTPSTPEVQDKEFPHVDIFIASYNEPRNLLYKTLIGCKNMDYPDKSKVHIYICDDGNRKDIKELCESLKVGYITREDNTHAKAGNLNNALKQTSSPYVVTFDADMIPMHDFLLKTIPFFMVEDKIGFVQVPQNFYNADPFQYNLFNESRVPNEQNLFSRLIQAGKNRFNAIIYSGSNTVLSREALNEINGLVVGTITEDFATGMKIQSKGYKCIYLNETHASGLSPESLEDLYSQRIRWGRGVIQTFKAFNPLFMRGLNIYQKLMYFSAFSYWYFGLWRLIFFMAPIVFSVFGVVVLSTSAIQMLEVWLPMFIFTNLTFYHFSKKVRSVSWTHIYDTILFPQITVGILKETFGFKMSKFKVTPKENVRRDNFTNRFELVRVQIVLAVLSFAGIVRIIYLYVTNNFEAQYIINLFWLTYNFYLLVMAIFFASERPKFRNNERMFVSEEAYVVNNEQKLYGKTIDISETGISIKLEKPICIDPNENYSIGVKTARNSAEFSGKIVRVDNFKDGHKYAFNITEIDEKNFSELILILYDRVPPSPEKQKRDYMTVNVLRNIINRKKRIVPLNRKLPRVKIDKKVKILVSKNEEGIHVVDFNYMYIAVKCVQEYDSFILPLSEKFNINLNCTYDKTLSERNRKKVSIYKVTNYDEFKDHDLLELLKAVPVYNEELNIHEKVAAVK”: “failed”.

Turning to “MGFTELNSVEHYIIHQISGVNLNDAQCKNQVSEPQATYALQWQFKSSEQLGRDVNEVLVESELVKALIRLNPEIEANPHLADEVIHKLRAILISVNQVGLVKANEEFFAWMTGEKTMPFGENNRHVPVKLIDLEDLTRNGYVVTNQFRIHHRETKIPDVVLMINGIPVVVGEAKTPIRPSVSWLDGAHEVHNIYENAVPQLFVPNILSFATEGKELFYGAIRCPLEFWAPWRTEEDDNSKGIGQVSKALGLTEIGKELIDLLSPVRLLDIMRNFSLFTTNKKKQRIKVIPRFQQYEGANKIVERVIEGKIKKGLIWHFQGSGKSLLMVFAAQKLRRTAQLKSPTVIVLVDRTDLDTQISGTFNAADVANVESTDSIKELQRMLERDTRKIIISMIHKFRDAKPNMNTRENIIVLVDEAHRTQEGDLGRQMRAALPNAFLFGLTGTPVNKADKNTFWAFGAEEDKGGYMSRYTFHDSIRDEATLPLHFEPRLVDVHVDKEALDKAFKDFKESAALSDEEADALNQKSAKMSAFLKSPERVEKIVEDIAIHFMDKVEPHGFKAMVVTPDREACVQYKEELDKHFPESASKVVISTSANDDFEFKQKWGVDKSQQEKLVDEFNDEKSDLKFLVVTAKLLTGFDAPICQTMYLDKSIKDHTLLQAICRTNRLYPNKTFGCIVDYFGVFDDAAKALEFDEESVQQVISNLSELRSKLPQAMQDTLAHFIGVDRSLEGFEGLEAAQNAIGDNDKKDAFALDFKYLAKLWESLSPDSVLDEYNEDYKWLAQVYESVKPASDNIGKLLWLALGAQTTQLIHDNVHVGDVHNLEEFVLDADVIENIFNNPDPRKIKQLEKELAKRFKDRGDLPVFKSLSERLEELRDKAEKGLIASIDFVKELCKIAKETVQAEKDLDDELQEKTPQAALTDLFLELKDDQTPAVVERIVTDIDAIVRIVRFPGWQTTTGGEREVQKSLRKALLKYKLHTDQTLFDRAYGYIKEYY”, the protein production entry is “failed”.

Take “MSIENLSSNKSFGGWHKQYSHVSNTLNCAMRFAIYLPPQASTGAKVPVLYWLSGLTCSDENFMQKAGAQRLAAELGIAIVAPDTSPRGEGVADDEGYDLGQGAGFYVNATQAPWNRHYQMYDYVVNELPELIESMFPVSDKRAIAGHSMGGHGALTIALRNPERYQSVSAFSPINNPVNCPWGQKAFTAYLGKDTDTWREYDASLLMRAAKQYVPALVDQGEADNFLAEQLKPEVLEAAASSNNYPLELRSHEGYDHSYYFIASFIEDHLRFHSNYLNA”: the protein production result is “not failed”.

Take “MRDLLNDLSEGLSHPDPILRAQIQMQKPLPKRFYKDVTVADVEEGGFTILLDGKPLRTPAKKPLVAPSRALADLLRDEWDAQKEVVNPVVMPVSRHVNTAIDGIASDTQAVFEDILRFSSSDLLCYRAGDPEALVARQTDYWDPVLDWATNVLGARFILVEGVMHRDQPREAIAAFAVTLKKYDTPIALAALHTMTSLTGSAILALALAEGELTLEEAWALAHLDEDWTAEQWGEDEEALERRAVRLIDMRAALNVLESLKSAS”: the protein production result is listed as “not failed”. Then “MSFVECPYHSPAERLVAEADEGGPSAITGMGLCFRCLLFSFSGRSGVEGGRVDLNVFGSLGLQPWIGSSRCWGGPCSSALRCGWFSSWPPPSKSAIPIGGGSRGAGRVSRWPPPHWLEAWRVSPRPLSPLSPATFGRGFIAVAVIPGLWARGRGCSSDRL”, with “failed”.
